Source: US20180271998A1 (MERRIMACK PHARMACEUTICALS, published 2018)

Columns and labels:
[1] = target: T1, Recombinant, Human EphA2 with C-terminal hexahistidine appended (human, UniProt P29317 25-534); assay: BLI (Octet Red 96), EphA2-His on anti-His5 sensors, 4 ug/ml Fab-PEG-DSPE conjugate, slope of association curve 2-10 s relative to Fab 11 conjugate
T1 construct: Captured on anti-His5 sensors; also called his-tagged recombinant, human EphA
Experimental: (§1) The Fab-PEG-DSPE conjugates were assayed for EphA2 binding strength using the FortéBIO® Octet® Red 96 system (Pall Corporation) to determine whether conjugation or engineering of the Fab affected binding activity. […] Anti-His5 sensors were first coated with his-tagged recombinant, human EphA (SEQ ID NO:47) at a concentration of 10 μg/ml protein in PBS. The sensors were then incubated in 4 μg/ml of Fab-PEG-DSPE conjugate in PBS. The slope of an association curve between 2-10 seconds was determined and compared across the variants and to the reference conjugate, Fab 11-PEG-PE, which is the anti-EphA2 antibody with wild-type disulfide pairing.

[2] = target: T1, Recombinant, Human EphA2 with …; assay: BLI (Octet Red 96), EphA2-His on anti-His5 sensors, Fab-PEG-DSPE conjugate
Experimental: as §1

[3] = target: T1, Recombinant, Human EphA2 with …; assay: BLI (Octet Red96), EphA2-His on anti-His5 sensors, liposomes with inserted conjugate
Experimental: (§2) The purified liposomes were assayed for EphA2 binding strength by FortéBIO® Octet® Red96 system (Pall) in PBS at 25 μM liposome phospholipid using anti-His5 sensors coated with recombinant human EphA2 with C-terminal hexahistidine (SEQ ID NO:47). The slope of the association curve from 3-20 sec was determined and compared to the slope observed for liposomes with inserted conjugate of the wild type Fab.

[4] = target: T1, Recombinant, Human EphA2 with …; assay: BLI (Octet Red96), EphA2-His on anti-His5 sensors, doxorubicin liposomes with inserted Fab-PEG-DSPE conjugate at 25 uM phospholipid, slope of association curve 3-20 s relative to Fab 11 liposomes
Experimental: as §2

T1 sequence (P29317 other isoform, or with tags, fused parts or gaps limits assumed): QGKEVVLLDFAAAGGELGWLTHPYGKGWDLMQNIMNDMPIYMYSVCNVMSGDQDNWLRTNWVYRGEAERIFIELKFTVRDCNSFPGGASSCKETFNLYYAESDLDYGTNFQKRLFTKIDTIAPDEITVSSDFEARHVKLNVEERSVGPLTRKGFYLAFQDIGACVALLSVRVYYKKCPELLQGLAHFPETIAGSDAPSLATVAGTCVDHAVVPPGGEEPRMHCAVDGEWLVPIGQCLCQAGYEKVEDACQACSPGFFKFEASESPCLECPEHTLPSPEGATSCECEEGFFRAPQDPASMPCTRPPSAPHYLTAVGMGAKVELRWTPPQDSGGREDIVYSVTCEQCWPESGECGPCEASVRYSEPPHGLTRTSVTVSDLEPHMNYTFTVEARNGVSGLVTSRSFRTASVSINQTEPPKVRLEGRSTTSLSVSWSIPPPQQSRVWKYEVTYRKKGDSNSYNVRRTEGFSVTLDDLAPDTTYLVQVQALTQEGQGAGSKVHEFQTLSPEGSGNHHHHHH

B1: anti-EphA2 Fab 12 (IgG1 G44C, C233S heavy chain; lambda G100C, C214S light chain), Fab-PEG-DSPE conjugate (Fab, V domains shown)
VH: QVQLVQSGGGLVQPGGSLRLSCAASGFTFSSYAMHWVRQAPGKCLEWVTVISPDGHNTYYADSVKGRFTISRDNSKNTLYLQMNSLRAEDTAVYYCARASVGATGPFDIWGQGTLVTVSS
VL: SSELTQPPSVSVAPGQTVTITCQGDSLRSYYASWYQQKPGTAPKLLIYGENNRPSGVPDRFSGSSSGTSASLTITGAQAEDEADYYCNSRDSSGTHLTVFGCGTKLTVLG
modifications: mal-PEG(2000)-DSPE linker conjugated to the C-terminal cysteine of the heavy chain (Cys in DKTHTCAA)
- Binding strength, % of wild type conjugate [1]: 108 % of wild type conjugate
- binding strength compared to wild-type protein conjugate [2]: 75%
- EphA2 binding strength compared to control liposomes [3]: > 80%
- Fab-liposome binding strength, % of control [4]: 109 % of control

B2: anti-EphA2 Fab 19 (IgG1 G44L, H172F, F174C, C233S heavy chain; lambda G100L, T162L, S174V, S176C, C214S light chain), Fab-PEG-DSPE conjugate (Fab, V domains shown)
VH: QVQLVQSGGGLVQPGGSLRLSCAASGFTFSSYAMHWVRQAPGKLLEWVTVISPDGHNTYYADSVKGRFTISRDNSKNTLYLQMNSLRAEDTAVYYCARASVGATGPFDIWGQGTLVTVSS
VL: SSELTQPPSVSVAPGQTVTITCQGDSLRSYYASWYQQKPGTAPKLLIYGENNRPSGVPDRFSGSSSGTSASLTITGAQAEDEADYYCNSRDSSGTHLTVFGLGTKLTVLG
modifications: mal-PEG(2000)-DSPE linker conjugated to the C-terminal cysteine of the heavy chain (Cys in DKTHTCAA)
- Binding strength, % of wild type conjugate [1]: 96.8 % of wild type conjugate
- binding strength compared to wild-type protein conjugate [2]: 75%
- EphA2 binding strength compared to control liposomes [3]: > 80%
- Fab-liposome binding strength, % of control [4]: 83.3 % of control

B3: anti-EphA2 Fab 18 (IgG1 G44L, H172E, F174C, C233S heavy chain; lambda G100L, T162D, S176C, C214S light chain), Fab-PEG-DSPE conjugate (Fab, V domains shown)
VH: QVQLVQSGGGLVQPGGSLRLSCAASGFTFSSYAMHWVRQAPGKLLEWVTVISPDGHNTYYADSVKGRFTISRDNSKNTLYLQMNSLRAEDTAVYYCARASVGATGPFDIWGQGTLVTVSS
VL: SSELTQPPSVSVAPGQTVTITCQGDSLRSYYASWYQQKPGTAPKLLIYGENNRPSGVPDRFSGSSSGTSASLTITGAQAEDEADYYCNSRDSSGTHLTVFGLGTKLTVLG
modifications: mal-PEG(2000)-DSPE linker conjugated to the C-terminal cysteine of the heavy chain (Cys in DKTHTCAA)
- Binding strength, % of wild type conjugate [1]: 75.5 % of wild type conjugate
- binding strength compared to wild-type protein conjugate [2]: 75%
- EphA2 binding strength compared to control liposomes [3]: > 80%
- Fab-liposome binding strength, % of control [4]: 99.6 % of control

B4: anti-EphA2 Fab 16 (IgG1 H172F, F174C, C233S heavy chain; lambda T162L, S174V, S176C, C214S light chain), Fab-PEG-DSPE conjugate (Fab, V domains shown)
VH: QVQLVQSGGGLVQPGGSLRLSCAASGFTFSSYAMHWVRQAPGKGLEWVTVISPDGHNTYYADSVKGRFTISRDNSKNTLYLQMNSLRAEDTAVYYCARASVGATGPFDIWGQGTLVTVSS
VL: SSELTQPPSVSVAPGQTVTITCQGDSLRSYYASWYQQKPGTAPKLLIYGENNRPSGVPDRFSGSSSGTSASLTITGAQAEDEADYYCNSRDSSGTHLTVFGGGTKLTVLG
modifications: mal-PEG(2000)-DSPE linker conjugated to the C-terminal cysteine of the heavy chain (Cys in DKTHTCAA)
- Binding strength, % of wild type conjugate [1]: 85 % of wild type conjugate
- binding strength compared to wild-type protein conjugate [2]: 75%
- EphA2 binding strength compared to control liposomes [3]: > 80%
- Fab-liposome binding strength, % of control [4]: 89.3 % of control

B5: anti-EphA2 Fab 15 (IgG1 H172E, F174C, C233S heavy chain; lambda T162D, S176C, C214S light chain), Fab-PEG-DSPE conjugate (Fab, V domains shown)
VH: QVQLVQSGGGLVQPGGSLRLSCAASGFTFSSYAMHWVRQAPGKGLEWVTVISPDGHNTYYADSVKGRFTISRDNSKNTLYLQMNSLRAEDTAVYYCARASVGATGPFDIWGQGTLVTVSS
VL: SSELTQPPSVSVAPGQTVTITCQGDSLRSYYASWYQQKPGTAPKLLIYGENNRPSGVPDRFSGSSSGTSASLTITGAQAEDEADYYCNSRDSSGTHLTVFGGGTKLTVLG
modifications: mal-PEG(2000)-DSPE linker conjugated to the C-terminal cysteine of the heavy chain (Cys in DKTHTCAA)
- Binding strength, % of wild type conjugate [1]: 86 % of wild type conjugate
- binding strength compared to wild-type protein conjugate [2]: 75%
- EphA2 binding strength compared to control liposomes [3]: > 80%
- Fab-liposome binding strength, % of control [4]: 102 % of control

B6: anti-EphA2 Fab 13 (IgG1 F174C, C233S heavy chain; lambda S176C, C214S light chain), Fab-PEG-DSPE conjugate (Fab, V domains shown)
VH: QVQLVQSGGGLVQPGGSLRLSCAASGFTFSSYAMHWVRQAPGKGLEWVTVISPDGHNTYYADSVKGRFTISRDNSKNTLYLQMNSLRAEDTAVYYCARASVGATGPFDIWGQGTLVTVSS
VL: SSELTQPPSVSVAPGQTVTITCQGDSLRSYYASWYQQKPGTAPKLLIYGENNRPSGVPDRFSGSSSGTSASLTITGAQAEDEADYYCNSRDSSGTHLTVFGGGTKLTVLG
modifications: mal-PEG(2000)-DSPE linker conjugated to the C-terminal cysteine of the heavy chain (Cys in DKTHTCAA)
- Binding strength, % of wild type conjugate [1]: 96.9 % of wild type conjugate
- binding strength compared to wild-type protein conjugate [2]: 75%
- EphA2 binding strength compared to control liposomes [3]: > 80%
- Fab-liposome binding strength, % of control [4]: 96.5 % of control

B7: anti-EphA2 Fab 14 (IgG1 G44C, F174C, C233S heavy chain; lambda G100C, S176C, C214S light chain), Fab-PEG-DSPE conjugate (Fab, V domains shown)
VH: QVQLVQSGGGLVQPGGSLRLSCAASGFTFSSYAMHWVRQAPGKCLEWVTVISPDGHNTYYADSVKGRFTISRDNSKNTLYLQMNSLRAEDTAVYYCARASVGATGPFDIWGQGTLVTVSS
VL: SSELTQPPSVSVAPGQTVTITCQGDSLRSYYASWYQQKPGTAPKLLIYGENNRPSGVPDRFSGSSSGTSASLTITGAQAEDEADYYCNSRDSSGTHLTVFGCGTKLTVLG
modifications: mal-PEG(2000)-DSPE linker conjugated to the C-terminal cysteine of the heavy chain (Cys in DKTHTCAA)
- Binding strength, % of wild type conjugate [1]: 105 % of wild type conjugate
- binding strength compared to wild-type protein conjugate [2]: 75%
- EphA2 binding strength compared to control liposomes [3]: > 80%
- Fab-liposome binding strength, % of control [4]: 120 % of control

B8: anti-EphA2 Fab 17 (IgG1 G44L, F174C, C233S heavy chain; lambda G100L, S176C, C214S light chain), Fab-PEG-DSPE conjugate (Fab, V domains shown)
VH: QVQLVQSGGGLVQPGGSLRLSCAASGFTFSSYAMHWVRQAPGKLLEWVTVISPDGHNTYYADSVKGRFTISRDNSKNTLYLQMNSLRAEDTAVYYCARASVGATGPFDIWGQGTLVTVSS
VL: SSELTQPPSVSVAPGQTVTITCQGDSLRSYYASWYQQKPGTAPKLLIYGENNRPSGVPDRFSGSSSGTSASLTITGAQAEDEADYYCNSRDSSGTHLTVFGLGTKLTVLG
modifications: mal-PEG(2000)-DSPE linker conjugated to the C-terminal cysteine of the heavy chain (Cys in DKTHTCAA)
- Binding strength, % of wild type conjugate [1]: 89.7 % of wild type conjugate
- binding strength compared to wild-type protein conjugate [2]: 75%
- EphA2 binding strength compared to control liposomes [3]: > 80%
- Fab-liposome binding strength, % of control [4]: 102 % of control
